Data as given in a protein production outcome set (Wang et al. 2014).

Assay: label from the status in PepcDB records
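Note: failed if final PepcDB status was selected cloned or expressed and not failed if soluble or beyond.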

MIKLNRDQKLTYKFLIIPIALLILSFNPYTESLEFSLPAVYMASHYAVYFSGLYIGYKYFKGGYISLILGLIPAVLWHSPYFFSLGAAMLDYRILLEITLLFGGVLLGSSINSMRLQIKITLLALWMLGDSILAILFITSTPLYSNLAYPFSPYTPSSLPLAGILMFVIMNVFLIYVISKFMKSIIG
protein production: failed

MDMTYNMRNAMASSRNMEEPQYDMSTIDLTQNSMNTNYLMNGSVLTNAYNNDYIVNNRDKYTGDMISQLKIDQGIPTYSHTLPMNGTTLADTNDSLNIQGMMRTNMDTTGFDGYSHIMNYNNTQNTIQTNPITYRMEDYNNLNNDVMYINPTTGEKFSAEYVNNIPTNDSDNMLYSNNFKNNSINMNTLLNSHYNNLPYPMPIYESMNNPQMYMQHMNQKQTVNIPLQHGEKKSAARNISTVNKRRIKTKKFFPCC
protein production: failed

MAYEERRSSILDSFSLSPLPYPVLLILAVASVFLLSSWYFSLEEAAESAEEQINFALLLIPLFLIVLVRWLSSMENPDALLGMFSSSRRTTYVSPGAGGDGGSSPWGVAALIVLLLVLLQYQSSFLEMWSG
protein production: failed

MLKYSNHMAFKDLREYIEFMKKKGKLIEVDDEVSVDLEIAEITRKATYAHLPPLLFKRVKNYENWKIVSNIFYSIESLYEIFGTNKLESISEGFLSNLSNMPITFFDKIKSLREILGLGKVMPKAKSPSFKEEKNLDLTKIPAIKTWPKDAGRYLTFSITITKDPETDVHNLSVYRVQILNEKEAIIHWQAFKRGALTAKKYLEKGISKIPIAVVTGVDPAIAFTAASPVPHGIDKYMFAGILRGEGIDVAELDNQLLVPSHSEVVLTGYVDLNDMRLEGPFGDHMGYYTPADYYPVFKLERVYIREDPIFHVTSVGKPPLEDAWIGKAVERIFLPFAKMLVPELIDMNLPEYGLFTGIGIFSIKKYYPGQAKRVMMALWGTGQLSLLKIIIVVDQDIDVHDINQVIYAIAANVDPKRDVWVIENALTDSLDPSVPFPPLGSKLGIDATRKFKEEMGKEWPEEVRSDEVVAKKADQILNKIIKRYQTSLEHHHHHH
protein production: failed

MDHKDLAQRILRDIGGEDNIVAAAHCATRLRLVLKDTKDVDRQSLDDDPDLKGTFETGGMFQIIVGPGDVDHVFKELDDATSKDIAVSTEQLKDVVANNANWFSRAVKVLADIFVPLIPILVGGGLLMAINNVLVAQDLFGPQSLVEMFPQISGVAEMINLMASAPFAFLPVLVGFTATKRFGGNEFLGAGIGMAMVFPSLVNGYDVAATMAAGEMPMWSLFGLDVAQAGYQGTVLPVLVVSWILATIEKFLHKRLKGTADFLITPVLTLLLTGFLTFIAIGPAMRWVGDVLAHGLQGLYDFGGPVGGLLFGLVYSPIVITGLHQSFPPIELELFNQGGSFIFATASMANIAQGAACLAVFFLAKSEKLKGLAGASGVSAVLGITEPAIFGVNLRLRWPFFIGIGTAAIGGALIALFNIKAVALGAAGFLGVVSIDAPDMVMFLVCAVVTFFIAFGAAIAYGLYLVRRNGSIDPDATAAPVPAGTTKAEAEAPAEFSNDSTIIQAPLTGEAIALSSVSDAMFASGKLGSGVAIVPTKGQLVSPVSGKIVVAFPSGHAFAVRTKAEDGSNVDILMHIGFDTVNLNGTHFNPLKKQGDEVKAGELLCEFDIDAIKAAGYEVTTPIVVSNYKKTGPVNTYGLGEIEAGANLLNVAKKEAVPATP
protein production: failed

MTPLLTAYLQAWKQYFDFSGQTTRDDFWWFMLAHLLITLVVVSIEIATNNPGWLDLFYSLISFIPMLAILVRRLHDTQRSGWWAWLFVIPVIGPFWLIYLLVQPSSSHFTDKALLS
protein production: failed

TATLILDDGLAIRYANPAAELLFSQSAKRIVEQSLSQLIQHASLDLALLTQPLQSGQSITDSDVTFVVDGRPLMLEVTVSPITWQRQLMLLVEMRK
protein production: not failed

NKDNLDLAGLTSLLSEKIKEFLQEKKMQSFYQQELETVESLQSLASRPVTHSTGSDQVELKDSGTSGVAQRVFKNALQLLQEKGLVFQRDSGSDKLYYVTTKDKDLQ
protein production: not failed

MLHDTPLITTIVAGLCLAFLLGMIASRLRISPLVGYLLAGVIVGPNTGGFRIDSGIINQLAEIGVILLMFGVGLHFSLKDLLSVKAIAIPAAIAQMAFSTFLGSCLGLIMGWGLSSSVVFGLALSTASTVILLRALQERHLIETEKGRIAVGWLIIEDLAMVLILVLIPSLANILGNTKKEAIDPLIQWLDLSIWGIFGLTILKVILFIILMLVIGRRVIPWLLKVSAHSGSRELFRLSVFATALGVAFGAAHLFGVSLSLGAFFAGMVMSESELSHRAAEESLPLRDAFSVLFFVSVGMLFDPGKILSHFFPLLATLFIIIIGKSAGAFFILKAFRYSNATACTISASLAQIGEFSFILAGLSLSLGLLNNDAHDFILGGAILSILVNPLIFIAFDKIKKHLENLPKNSQDTQKIIDIDPKDPDQEFLPMTSKTNHIVIIGYSRIGKCVALSLINRGDPVVIVEESKRLTDKAIADGFEVICGNIIKQDVMNAANMSNAYKVVITMCNTIEVGECIVNIRDMNKDIQIITHTLSDVDTAYLIDLGADIVVTDEEEIANGVIEHITGQRFIKNIAQS
protein production: failed

EKMTRDEIAYMLTNSEETLDADEIEMLQGVFSLDELMAREVMVPRTDAFMVDIQDDSQAIIQSILKQNYSRIPVYDGDKDNVIGIIHTKSLLKAGFVDGFDNIVWKRILQDPLFVPETIFVDDLLKELRNTQRQMAILLDEYGGMAGLVTLEDLLEEIVGEID
protein production: not failed

DARKGNASAPVVAVEFFDYQCGYCKGALPELAAALSGRNDVAVVMKEFPILGSTSEAAARLALAVRAEHGDEAYLGFHNALLSHKGGLNEAALSILAGAAGYDYPALVARGRQDDITSIIDGNRRLAQALSISGTPAFVFRDGEVVPGMMAADRLTAAFDRLSASTAAAQ
protein production: failed

MLSGVGAPVGKQMLAGTEVAAMQINKAGGLLGREVELVIRDDKYNSSESVAVARELAGDGINLLLGGSQTVTALGLAPLAPELNMAVMIVAAAGMPVTHELFNPNIFRATANNYTQYSSLGRVLIEQNPDVRTWVSLAPDGDFGRDSALFFGKAVEKYAPGEKPTVLDTIYTQATATDFRTQINQLMSSDAEGLYIGIAASAQISFFQQARSVGLYDKFKAIGEVGNGDITGKAMGRNTHPNLWSVCHWIYNAEPFASNPVSKQLYEDYVTLKGDEMPSAQVAAGHRAAMAIFEGIRAAGSTETEAVLAAIEDVEFETVGGPVSFRKEDHQLVNTNYYSQMGPSREEPFFAFNKVVSIDAAEMIEPATPGKAFDISELPQLEHHHHHH
protein production: failed

MIESMIIAGGMLVALLYMTACSDKLDVQQMYEFDLATLPVQTTIVKGEEAEIRCQLVRSGEYQDTKYFIRYFQPTGKGELRMENGTVLLPNDLYLLPEETFRLYYRSFGTDQQKIDIYILDSFGQVVQKSFAFNNLEHHHHHH
protein production: failed

MLSMIGLVGGLVLLIVLTLRGMNLFISAPLCAVIVALCSGVPLLTGDVNFVSAYMDGFASFVAAWFFMFLLGSMFGKFMEDTGAADSVARWIINKLGRKQAVLAVVLACAILTYGGVSVFVVAFSVYPMALSLFKDANLPRRFIPAALAFGSVTFTMTSAGSPEIQNWIPVKYLGTSPYAAWEVSLVVAVLMATFGYWWLRKIINRAIANGEKFEAREGDPILLERKLPSPISGLIPLLVVLGLSFTFHDTLQQNALIVALLGGVIAIAVINFKHFHKPQTAIHEATTGALVAIGNTAAVVGFGSIAKITPAFDAAVTAMTSLPGNELVGAAVAVSVIAGLTGSASGGQAIALPEVGPHYMAAGVNPEQLHRIVSISSGALDSLPHNGYVVTTIRAICNEKHSAAYWAVAAVTVVVPLMGLAVAIGLFML
protein production: failed

MTLSPNLRGALWMLASAVGFTVMTTLIKFLGDDYPAALQTFYRQLAGVLVLLPLIARDWRGAFRTTRPGIVIFRSSAGVLALIMSFYAYQKLPLADANALSFTRTLWLVPLAGLVLREPIGPRRISAALVGFVGVLIMLQPGAGGVEAWLGWPQLCALGAAFLFALTITGMKVMTRDHTPFVLLVYAAVLGLVFAIPPALFVWRWPTWPDLGLLAAMGVIGTLTQGAYIKGMEAGEAAVMAPVDYTRLVFAVIVGFLLFQEVPRTATVVGAVIVVGSTLFISWREHQLAKQAAAEPT
protein production: failed

MARVRFENKRVNMSKLSQFGFEPNQNGQYQFRILIMQGQFEMIIELNTDGSLNTTLTDTTTSEVYVLHLTSQAHGQFVGQVAQAYQDVLYNIEQHCYDNDVFQSTPERKLIAQVKAAYGDDLEFLWPKFPQNAVWRRSDTHKWYGALLTVTSDKLALPGATHVVTVLDLRARPEDLSMLIDGQHYLPGYHMNKKHWYSILLDDVVPLATIMDDVKVSYMLAKLEHHHHHH
protein production: not failed

MAAMPKPAAFWNDRFANEEYVYGEAPNRFVASAARTWLPEAGEVLLLGAGEGRNAVHLAREGHTVTAVDYAVEGLRKTERLATEAGVEVEAIQADVREWKPARAWDAVVVTFLHLPADERPGLYRLVQRCLRPGGRLVAEWFRPLEHHHHHH
protein production: failed

MLMPRRMKYRKQQRGRLKGATKGGDYVAFGDYGLVALEPAWITAQQIEAARVAMVRHFRRGGKIFIRIFPDKPYTKKPLEVRMGKGKGNVEGYVAVVKPGRVMFEVAGVTEEQAMEALRIAGHKLPIKTKIVRRDAYDEAQ
protein production: not failed

MLNGDVTLRAWTNIWMFLIYGLAIFLEPIHNNIRHLPILVRGGIYSTLIIISEYITGSFLCFMLGTCPWHYSSGPFTIQGITRLDYFPYWLIAGLLFEKLHDALLKISINVEQSSS
protein production: failed

MVAEKERVLMDLQDVFEYAFDEIFVTDDKGIVVRVNSTCERHYQIAAKELVGKHVKELQKDGIFYPSATLEVIEKKRPIELVQTTKSGEYLHVRTRPVFDDEGNLRRVISYSRDLTELYQLRQKVEEMDNQLKTYKKELRETYEHEGLIFKSIAMQKIIETIKKVSVVDSTVLVLGETGVGKSRLVRHLHEMSNRKNESFYEINCAALPTNLIESELFGYSGGSFTGANREGKKGLLESAHKGTLFLDEIGEMPLEIQAKLLQVLQEKTFRPIGGRELKKVDVRIVAATNRDLSMMVKQGTFRKDLYYRLNVIPILIPPLRERTEDILPLIYHYLQHFNEKYGRNVKLAPSTLQMFVGYPWEGNNREIENVIERIVITADDIVTIEDLPIAMQESTVEQSGQSLYKMLEEVERNIILKAYKTYGSSYKVAEFLKISQSAATRKIKKLIEEEENIG
protein production: failed

MDSGTINIKKWVVIYPVYINSKKTVAEGRRISVSKSCENPNCIEISDCCKHLKLPSAVEIDKAYPRDFMQVGRVRVQLKREDGTLLNPAITSRKHLMQKIAELVPRHPERVKKQEAQKAKKQEPQATTSTSGTSSKSGKGGKKKR
protein production: failed

YRQSQSRAARLRLLVDTGQELIQLPPEAMRKCVLQRACAFVAMDHGLLLEWGADNGVQTTARHGSKERLSTLETTADPLAIGPQWLERPGTHLPCVLLLPLRGADEGSFGTLVLANSVAISAPDGEDIESLQLLATLLAAHLENNRLLEALVARDRT
protein production: not failed

MAGRRRWSTEQILDAAAELLLAGDAETFSVRKLAASLGTDSSSLYRHFRNKTELLRAVADRILLSAMDGYRPEGDWKQRLTAVALRLRESFGQQPQLAAVWGRHGSGGTGSRLMMEEVLQALRASGLPDDEIPARYHRLVILISSLITAEGGFGAVGAQEHEQGMEQFRVAVLGADPERFPALSHFAREIRPLGADRGAAFEEILAAHLAHLEAAAP
protein production: not failed

MVITGKFAMYVTAFVVTVSLIEAFVLWRKRRDGVKPFSWNEVWLSLADLAGRKLSVLLPLSLAAPVFSFAWDHRLFTITLNSALAVFLLFVGQEFCYYWYHRAAHRIRFFWATHAVHHSPNQLTLTSAYRLGWTGKLTGSAVFFAPLVLLGVRPEVVLATLSLNLLYQFWLHNDWMPKLGWFEYVFNTPSAHRVHHASNIDYLDANYGGVLIIFDRLFGTYVEERADEPCRYGLVHPTTTQNPIVNQFEHWVSLGRDMASASKLWHAAAYLIMPPGWAPNGKGTTTEILRRQQEELRQAGWQRPGVV
protein production: failed
